Our source for the Kd values is patent publication US20070004909A1.

In the test the target is soluble CD16A (sCD16A) (UniProt P08637). The experiment in a line: SPR (BIAcore 1000); receptor amine-coupled (~1000 RU), scFv as analyte; units not printed (koff/kon implies nM).
Sequence of soluble CD16A (sCD16A) (P08637 17-208 limits assumed): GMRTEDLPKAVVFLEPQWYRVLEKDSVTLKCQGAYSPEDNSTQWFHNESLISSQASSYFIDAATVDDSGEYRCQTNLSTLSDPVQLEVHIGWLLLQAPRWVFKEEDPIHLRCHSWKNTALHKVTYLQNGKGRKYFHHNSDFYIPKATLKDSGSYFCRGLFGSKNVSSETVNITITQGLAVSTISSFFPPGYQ

Substance h3G8 scFv returned a Kd of 38.7 nM. This counts as double-digit nanomolar.
